Measured values from US20140017221.

T1: Flag-tagged SOD2
T1 sequence: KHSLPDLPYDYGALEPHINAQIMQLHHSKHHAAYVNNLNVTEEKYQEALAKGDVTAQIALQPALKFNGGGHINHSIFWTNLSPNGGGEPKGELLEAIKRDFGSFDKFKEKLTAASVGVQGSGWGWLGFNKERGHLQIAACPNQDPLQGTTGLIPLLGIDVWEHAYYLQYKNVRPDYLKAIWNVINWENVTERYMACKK

T2: Long-chain acyl CoA dehydrogenase (endogenous, mouse liver), P51174
T2 chain: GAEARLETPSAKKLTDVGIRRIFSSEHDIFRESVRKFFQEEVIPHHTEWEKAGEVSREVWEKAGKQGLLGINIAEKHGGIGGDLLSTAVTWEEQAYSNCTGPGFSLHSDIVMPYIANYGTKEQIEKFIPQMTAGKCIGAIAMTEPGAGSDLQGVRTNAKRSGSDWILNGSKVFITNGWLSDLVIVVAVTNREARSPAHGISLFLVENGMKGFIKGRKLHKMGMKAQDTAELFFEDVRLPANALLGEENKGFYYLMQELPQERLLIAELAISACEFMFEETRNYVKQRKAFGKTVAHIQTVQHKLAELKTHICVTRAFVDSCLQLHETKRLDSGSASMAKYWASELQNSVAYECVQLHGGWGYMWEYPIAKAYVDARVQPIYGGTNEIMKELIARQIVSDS

B1: SIRT3 (endogenous, mouse tissue) (protein)
chain: PISLCVGASGGFGGGGSSEKKFSLQDVAELLRTRACSRVVVMVGAGISTPSGIPDFRSPGSGLYSNLQQYDIPYPEAIFELGFFFHNPKPFFMLAKELYPGHYRPNVTHYFLRLLHDKELLLRLYTQNIDGLERASGIPASKLVEAHGTFVTATCTVCRRSFPGEDIWADVMADRVPRCPVCTGVVKPDIVFFGEQLPARFLLHMADFALADLLLILGTSLEVEPFASLSEAVQKSVPRLLINRDLVGPFVLSPRRKDVVQLGDVVHGVERLVDLLGWTQELLDLMQRERGKLDGQDR

Tests used:
Flag-tagged SOD2 = system: T1, Flag-tagged SOD2
[1] = system: Flag-tagged SOD2 mutant of K68
[2] = system: Flag-tagged SOD2 mutant of K130
[3] = system: Flag-tagged SOD2 mutant of K122
[4] = target: T2, Long-chain acyl CoA dehydrogenase …

Molecule	acetylation levels of immunopurified SOD2 mutant (Flag-tagged SOD2 K53R)	acetylation levels of immunopurified SOD2 mutant (Flag-tagged SOD2 K53/89R)	enzymatic activity of immunopurified SOD2 K53/89R (superoxide conversion, colorimetric) (Flag-tagged SOD2 K53/89R)	acetylation levels for SOD2 after immunoprecipitation, western blotting with anti-acetyllysine antibody (Flag-tagged SOD2)	enzymatic activity of immunopurified SOD2 (superoxide conversion, colorimetric) (Flag-tagged SOD2)	acetylation status of immunopurified SOD2 mutant [1]	acetylation status of immunopurified SOD2 mutant [2]	acetylation status of immunopurified SOD2 mutant [3]	acetylation levels of immunopurified SOD2 mutant (Flag-tagged SOD2 K89R)	enzymatic activity of LCAD in liver lysates (oxidation of palmitoyl-CoA) [4]
SIRT3 (co-transfected expression construct)	SIRT3 co-expression further decreased acetylation levels of K53R and K89R, but not K53/89R	SIRT3 co-expression further decreased acetylation levels of K53R and K89R, but not K53/89R	SIRT3 did not further increase its enzymatic activity	SIRT3, but not SIRT3-H248Y, deacetylated SOD2	Overexpression of WT SIRT3 decreased the acetylation of SOD2 (FIG. 3D, E, G) and significantly increased its enzymatic activity	SIRT3 co-expression reduced acetylation levels of these three SOD2 mutants	SIRT3 co-expression reduced acetylation levels of these three SOD2 mutants	SIRT3 co-expression reduced acetylation levels of these three SOD2 mutants	SIRT3 co-expression further decreased acetylation levels of K53R and K89R, but not K53/89R	–
SIRT3-H248Y	–	–	–	SIRT3, but not SIRT3-H248Y, deacetylated SOD2	overexpression of SIRT3-H248Y had the opposite effect	–	–	–	–	–
B1	–	–	–	–	–	–	–	–	–	we observed a 50% increase in enzymatic activity of LCAD in WT but not SIRT3 KO mice during CR
